The text below walks through data of patent US20050124539A1 (Takeda / Millennium, published 2005).

Experiment [1] addresses T1, TGR26, rat-derived G protein-coupled receptor protein (rat, UniProt Q56UD9 1-329).
T1 construct: Expressed in CHO dhfr- cells from pAK-rGPR7; also called rat TGR26; TGR26 receptor
T1 sequence: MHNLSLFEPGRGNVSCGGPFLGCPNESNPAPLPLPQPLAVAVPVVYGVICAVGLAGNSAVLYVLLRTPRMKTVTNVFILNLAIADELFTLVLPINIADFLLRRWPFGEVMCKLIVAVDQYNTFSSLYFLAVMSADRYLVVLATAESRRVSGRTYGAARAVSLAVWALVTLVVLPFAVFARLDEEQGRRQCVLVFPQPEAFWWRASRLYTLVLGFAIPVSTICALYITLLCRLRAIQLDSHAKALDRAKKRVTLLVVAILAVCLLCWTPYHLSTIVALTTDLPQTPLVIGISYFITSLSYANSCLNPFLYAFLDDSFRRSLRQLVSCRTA
Briefly: radioligand filter binding, membrane fraction of TGR26 expressing CHO cells. The procedure: (§1) Cell membrane fraction prepared from TGR26 expressing cells was diluted to various concentration with assay buffer (25 mM Tris-HCl, 5 mM EDTA, 0.05% CHAPS (3-[(3-Cholamidopropyl) Dimethyl-Ammonio]-1-Propanesulfonate), 0.1% BSA, 0.5 mM PMSF, 1 μg/ml Pepstatin, 20 μg/ml Leupeptin, 4 μg/ml E-64, pH7.4), and 200 μl each of the diluent was dispensed into polypropilene test tube (Falcon 2053). In order to determine an amount of maximum binding, 2 μl of DMSO and 2 μl of 7 nM [¹²⁵-Tyr¹⁰]-hGPR8L(1-23) were added to the membrane fraction solution. Further, in order to determine a non-specific binding, 2 μl of 100 μM hGPR8L(1-23)/DMSO solution and 2 μl of 7 nM [¹²⁵I]-Tyr¹⁰]-hGPR8L(1-23) were added to the membrane fraction solution. The reaction was done at 25° C. for 75 minutes, and the reaction mixture was filtered by suction filtration using Whatman glassfilter (GF-F) treated with polyethyleneimine. In addition, the filter was washed twice with 1.5 ml of washing buffer (25 mM Tris-HCl, 5 mM EDTA, 0.05% CHAPS, 0.1% BSA, pH7.4). After filtration, a radioactivity remaining on the filter was counted using γ-counter, and an amount of specific binding was estimated by subtracting an amount of non-specific binding from an amount of maximum binding. […]

The target of experiment [2] is T2, Human GPR7 (human, UniProt P48145 1-328).
T2 construct: Full-length receptor expressed in CHO dhfr- cells; also called Human GPR7 receptor; GPR7 receptor
T2 sequence: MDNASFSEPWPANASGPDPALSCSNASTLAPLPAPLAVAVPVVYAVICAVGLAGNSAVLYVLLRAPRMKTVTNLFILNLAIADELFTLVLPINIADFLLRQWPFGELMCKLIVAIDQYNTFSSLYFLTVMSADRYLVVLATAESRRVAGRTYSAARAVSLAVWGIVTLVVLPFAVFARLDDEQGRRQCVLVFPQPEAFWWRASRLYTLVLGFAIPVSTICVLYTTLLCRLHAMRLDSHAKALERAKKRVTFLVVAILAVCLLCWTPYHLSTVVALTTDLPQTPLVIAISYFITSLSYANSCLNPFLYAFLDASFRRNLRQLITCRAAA
Briefly: radioligand filter binding, membrane fraction of Human GPR7 expressing CHO cells.

Experiment [3] deals with T3, Human GPR8 receptor protein (human, UniProt P48146 1-333).
T3 construct: Full-length receptor expressed in CHO dhfr- cells (CHO/GPR8)
Briefly: radioligand filter binding, membrane fraction of Human GPR8 expressing CHO cells. Here is the method: Using [¹²⁵I]-labeled hGPR8L(1-23) prepared as described in Reference Example 42 and a cell membrane fraction prepared from Human GPR8 expressing cells by the similar manner as described in Reference Example 6, a receptor binding assay was carried out as follows.
Cell membrane fraction prepared from Human GPR8 expressing cells was diluted to various concentration with assay buffer (25 mM Tris-HCl, 5 mM EDTA, 0.05% CHAPS (3-[(3-Cholamidopropyl) Dimethyl-Ammonio]-1-Propanesulfonate), 0.1% BSA, 0.25 mM PMSF, 1 μg/ml Pepstatin, 20 μg/ml Leupeptin, pH7.4), and 200 μl each of the diluent was dispensed into polypropilene test tube (Falcon 2053). In order to determine an amount of maximum binding (TB), […] of DMSO and 2 μl of 7 nM [¹²⁵I-Tyr²]-hGPR8L(1-23) or [¹²⁵I-Tyr¹⁰]-hGPR8L(1-23) were added to the membrane fraction solution. Further, in order to determine a non-specific binding (NSB), 2 μt of 100 μM hGPR8L(1-23)/DMSO solution and 2 μl of 7 nM [¹²⁵I]-Tyr²]-hGPR8L(1-23) or [¹²⁵I-Tyr¹⁰]-hGPR8L(1-23) were added to the membrane fraction solution. […] After filtration, a radioactivity remaining on the filter was counted using γ-counter, and an amount of specific binding (SB) was estimated by subtracting an amount of non-specific binding from an amount of maximum binding. […]

The target in experiment [4] is T2, Human GPR7. Briefly: cell-based or functional assay.
For experiment [5], the target named is T1, TGR26, rat-derived G protein-coupled …. Briefly: competition with [125I-Tyr10]-hGPR8L(1-23), membrane fraction of TGR26 expressing CHO cells, 3 µg/ml. The procedure: as §1
For experiment [6], the target named is T2, Human GPR7. Briefly: competition with [Phe2, 125I-Tyr10]-Human GPR8 ligand (1-20), membrane fraction of GPR7 expressing CHO cells, 15 µg/ml. The procedure:
In order to determine an amount of maximum binding, 2 μl of DMSO and 2 μl of 7 nM [Phe², ¹²⁵I-Tyr¹⁰]-Human GPR8 ligand (1-20) were added to the membrane fraction solution. Further, in order to determine a non-specific binding, 2 μl of 100 μM hGPR8L(1-23)/DMSO solution and 2 μl of 7 nM [Phe², ¹²⁵I-Tyr¹⁰]-Human GPR8 ligand (1-20) were added to the membrane fraction solution. The reaction was done at 25° C. for 75 minutes, and the reaction mixture was filtered by suction filtration using Whatman glassfilter (GF-F) treated with polyethyleneimine. After filtration, a radioactivity remaining on the filter was counted using γ-counter, and an amount of specific binding was estimated by subtracting an amount of non-specific binding from an amount of maximum binding. When the concentration of membrane fraction was changed, a specific binding of [Phe², ¹²⁵I-Tyr¹⁰]-Human GPR8 ligand (1-20) was perceived depending on the concentration of membrane fraction.
The inhibition of binding for GPR7 receptor or GPR8 receptor in the test sample (the inhibition rate (%)) is represented by the ratio of the values obtained by subtracting a radioactivity (X) remaining on the filter in the case where the test sample and of [Phe², ¹²⁵I-Tyr¹⁰]-Human GPR8 ligand (1-20) were added from the maximum binding (TB) to the specific binding (SB) ((TB−X)/SB×100(%)).
(§2) The IC₅₀ values were 0.13 nM and 0.039 nM, respectively. […]

For experiment [7], the target named is T3, Human GPR8 receptor protein. Briefly: competition with [125I-Tyr10]-hGPR8L(1-23), membrane fraction of GPR8 expressing CHO cells. The procedure: Cell membrane fraction prepared from Human GPR8 expressing cells was diluted to various concentration with assay buffer (25 mM Tris-HCl, 5 mM EDTA, 0.05% CHAPS (3-[(3-Cholamidopropyl) Dimethyl-Ammonio]-1-Propanesulfonate), 0.1% BSA, 0.25 mM PMSF, 1 μg/ml Pepstatin, 20 μg/ml Leupeptin, pH7.4), and 200 μl each of the diluent was dispensed into polypropilene test tube (Falcon 2053). In order to determine an amount of maximum binding (TB), […] of DMSO and 2 μl of 7 nM [¹²⁵I-Tyr²]-hGPR8L(1-23) or [¹²⁵I-Tyr¹⁰]-hGPR8L(1-23) were added to the membrane fraction solution. Further, in order to determine a non-specific binding (NSB), 2 μt of 100 μM hGPR8L(1-23)/DMSO solution and 2 μl of 7 nM [¹²⁵I]-Tyr²]-hGPR8L(1-23) or [¹²⁵I-Tyr¹⁰]-hGPR8L(1-23) were added to the membrane fraction solution. The reaction was done at 25° C. for 60 minutes, and the reaction mixture was filtered by suction filtration using Whatman glassfilter (GF-F) treated with polyethyleneimine. After filtration, a radioactivity remaining on the filter was counted using γ-counter, and an amount of specific binding (SB) was estimated by subtracting an amount of non-specific binding from an amount of maximum binding. Since the specific binding in the case where [¹²⁵I-Tyr¹⁰]-hGPR8L(1-23) was used, was twice as much as that in the case where [¹²⁵1-Tyr²]-hGPR8L(1-23) was used, in practice, [¹²⁵I-Tyr¹⁰]-hGPR8L(1-23) was used in the assay. When the concentration of membrane fraction was changed, a specific binding of [¹²⁵I-Tyr¹⁰]-hGPR8L(1-23) was perceived depending on the concentration of membrane fraction.
A receptor binding activity of human- and porcine-homologue derivatives of GPR8 ligand peptide, wherein the synthesis method has been described in the specification, was measured using a membrane fraction of GPR8 expressing CHO cells and [¹²⁵-Tyr¹⁰]-hGPR8L(1-23) by the method described in Reference Example 43.

For experiment [8], the target named is T2, Human GPR7. Briefly: cell-based or functional assay. This is another data set of the same source.
Experiment [9] deals with T2, Human GPR7. Briefly: radioligand filter binding, membrane fraction of GPR7 expressing CHO cells. Here is the method: (§3) Cell membrane fractions prepared from GPR7 expressing CHO cells and GPR8 expressing CHO cells, were diluted to various concentration with assay buffer (25 mM Tris-HCl, 5 mM EDTA, 0.05% CHAPS, 0.1% BSA, 0.5 mM PMSF, 1 μg/ml Pepstatin, 4 μg/ml E-64, 20 μg/ml Leupeptin, pH7.4), and 200 μl each of the diluent was dispensed into polypropilene test tube (Falcon 2053). In order to determine an amount of maximum binding, 2 μl of DMSO and 2 μl of 7 nM [Phe², ¹²⁵I-Tyr¹⁰]-Human GPR8 ligand (1-20) were added to the membrane fraction solution. Further, in order to determine a non-specific binding, 2 μl of 100 μM hGPR8L(1-23)/DMSO solution and 2 μl of 7 nM [Phe², ¹²⁵I-Tyr¹⁰]-Human GPR8 ligand (1-20) were added to the membrane fraction solution. The reaction was done at 25° C. for 75 minutes, and the reaction mixture was filtered by suction filtration using Whatman glassfilter (GF-F) treated with polyethyleneimine. After filtration, a radioactivity remaining on the filter was counted using γ-counter, and an amount of specific binding was estimated by subtracting an amount of non-specific binding from an amount of maximum binding. When the concentration of membrane fraction was changed, a specific binding of [Phe², ¹²⁵I-Tyr¹⁰]-Human GPR8 ligand (1-20) was perceived depending on the concentration of membrane fraction.
as §2

The target of experiment [10] is T3, Human GPR8 receptor protein. Briefly: radioligand filter binding, membrane fraction of GPR8 expressing CHO cells. Here is the method:
as §3, §2

No end group written: not given here. *: point of attachment. 125I = [125I]*

T3 sequence (P48146 whole entry): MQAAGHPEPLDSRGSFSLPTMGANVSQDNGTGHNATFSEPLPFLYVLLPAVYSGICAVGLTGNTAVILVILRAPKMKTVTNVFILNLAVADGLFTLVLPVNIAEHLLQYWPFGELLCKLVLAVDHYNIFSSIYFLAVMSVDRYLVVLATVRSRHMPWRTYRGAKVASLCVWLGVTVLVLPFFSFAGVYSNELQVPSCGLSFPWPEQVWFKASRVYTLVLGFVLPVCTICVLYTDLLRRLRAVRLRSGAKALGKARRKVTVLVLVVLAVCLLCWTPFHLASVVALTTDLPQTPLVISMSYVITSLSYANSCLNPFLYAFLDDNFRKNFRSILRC

B1: [^125I-Tyr^10]-hGPR8L(1-23) (peptide)
peptide: WYKHVASPRY(125I)HTVGRAAGLLMGL
For B1, the binding result (in [1]; with Human GPR7 [2]; in experiment [3]) was “binds” in each case.

B2: human homologue of GPR8 ligand peptide consisting of 23 residues (peptide)
peptide: WYKHVASPRYHTVGRAAGLLMGL
notes: also called hGPR8L(1-23); Human GPR8 ligand (1-23)
Consider B2, for which the “inhibition of intracellular cAMP production (IC50)” value with Human GPR7 [4] came to 0.025 nM. Also, the IC50 in experiment [5] stood at 0.12 nM; in the experiment with Human GPR7 [6], 0.13 nM; in experiment [7], 0.25 nM. For the same molecule, the “Promoting activity to GTPγS binding (EC50 nM)” value with Human GPR7 [8] worked out at 0.74 nM.

B3: [Phe^2, ^125I-Tyr^10]-Human GPR8 ligand (1-20) (peptide)
peptide: WFKHVASPRY(125I)HTVGRAAGLL
notes: Radioligand made from [Phe2]; also called labeled [Phe^2]; Human GPR8 ligand (1-20)
Take B3: the binding result (in the experiment with Human GPR7 [9]; in experiment [10]) was “binds” each time.
